Our source for the OT-I CD8+ T cell proliferation in ear-draining lymph nodes (CTV dilution), against free OVA on a per molecule basis, OT-II CD4+ T cell proliferation in ear-draining lymph nodes (CTV dilution), against free OVA on a per molecule basis and percent of XCR1+ dermal DCs stained values is patent publication US20180140690A1.

In experiment [1] the target is XC-chemokine receptor 1 (XCR1) on mouse dermal dendritic cells (mouse) (UniProt Q9R0M1). Nature of the experiment: cell-based or functional assay.
Chain of UniProt Q9R0M1 (Q9R0M1 whole entry): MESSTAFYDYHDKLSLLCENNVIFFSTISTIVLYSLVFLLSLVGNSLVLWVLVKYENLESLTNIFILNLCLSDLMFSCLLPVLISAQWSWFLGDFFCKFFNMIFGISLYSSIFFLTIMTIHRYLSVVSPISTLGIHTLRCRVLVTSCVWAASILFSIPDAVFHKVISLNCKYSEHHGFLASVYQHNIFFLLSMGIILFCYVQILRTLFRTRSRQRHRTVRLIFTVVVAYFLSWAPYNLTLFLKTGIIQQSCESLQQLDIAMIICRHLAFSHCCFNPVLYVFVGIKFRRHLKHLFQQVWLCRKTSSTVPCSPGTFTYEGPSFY
The target is the same in experiment [2]. In words: flow cytometry of ear skin cells 24 h after laser-assisted delivery of the vaccibody in vivo; staining depended on XCR1 expression (Xcr1-/- mice). In general terms: Flow cytometry measures light scatter and fluorescence of single cells or particles in a stream.

Consider “XCL1-OVA vaccibodies (from UniProt P47993 22-114; P01860 99-377; P01012 2-386)”, for which, in experiment [1], the OT-I CD8+ T cell proliferation in ear-draining lymph nodes (CTV dilution), against free OVA on a per molecule basis amounted to 15 times and the OT-II CD4+ T cell proliferation in ear-draining lymph nodes (CTV dilution), against free OVA on a per molecule basis came out at 3 times.

Turning to “XCL1-mCherry vaccibodies (from UniProt P47993 22-114; P01860 99-377)”, in experiment [2], the percent of XCR1+ dermal DCs stained came to 15%.
